Experimental data: the DeepSol protein solubility set

Experiment: soluble on expression in E. coli; label from the status in PepcDB or PDB records

MSKQQIGVVGMAVMGRNLALNIESRGYTVSIFNRSREKTEEVIAENPGKKLVPYYTVKEFVESLETPRRILLMVKAGAGTDAAIDSLKPYLDKGDIIIDGGNTFFQDTIRRNRELSAEGFNFIGTGVSGGEEGALKGPSIMPGGQKEAYELVAPILTKIAAVAEDGEPCVTYIGADGAGHYVKMVHNGIEYGDMQLIAEAYSLLKGGLNLTNEELAQTFTEWNNGELSSYLIDITKDIFTKKDEDGNYLVDVILDEAANKGTGKWTSQSALDLGEPLSLITESVFARYISSLKDQRVAASKVLSGPQAQPAGDKAEFIEKVRRALYLGKIVSYAQGFSQLRAASEEYNWDLNYGEIAKIFRAGCIIRAQFLQKITDAYAENPQIANLLLAPYFKQIADDYQQALRDVVAYAVQNGIPVPTFSAAVAYYDSYRAAVLPANLIQAQRDYFGAHTYKRIDKEGVFHTEWLD
soluble on expression in E. coli: soluble

MGSDKIHHHHHHMERAGLAALEDALRNGLSEPFCKAIETIGQSNGRLIITGVGKSGHIGAKLAATFASTGTPAFFVHAAEANHGDLGMIGGDDVVLAISKGGESAELRSIINYSRRFSIPLIALTCSENSSLARASDIVLLVPNEQEACPLGLAPTTSTLMQLALGDALAVALLEARNFTAGDFKVFHPGGKLGASLTLVSDIMHTGDRVPLVNKGTAMPEAVGVLSRKHFGCVGILDEDGRLCGIVTEGDMARNLSRNLAELVVDDIMTRSPKTVKKSVLATSALATLEKFHIGALIVVDDDNRPIGLVHFHDLLRIGVA
soluble on expression in E. coli: not soluble

MGSDKIHHHHHHMTINFRRNALQLSVAALFSSAFMANAADVPQVKVTVTDKQCEPMTITVNAGKTQFIIQNHSQKALEWEILKGVMVVEERENIAPGFSQKMTANLQPGEYDMTCGLLTNPKGKLIVKGEATADAAQSDALLSLGGAITAYKAYVMAETTQLVTDTKAFTDAIKAGDIEKAKALYAPTRQHYERIEPIAELFSDLDGSIDAREDDYEQKAADPKFTGFHRLEKALFGDNTTKGMDQYAEQLYTDVVDLQKRISELAFPPSKVVGGAAGLIEEVAASKISGEEDRYSHTDLWDFQANVEGSQKIVDLLRPQLQKANPELLAKVDANFKKVDTILAKYRTKDGFETYDKLTDADRNALKGPITALAEDLAQLRGVLGLD
soluble on expression in E. coli: not soluble

MGSDKIHHHHHHGASVQDLSNTKDAIVESETTLAENNNEYSNKNSLFYSDISSYEIFTDVNSEAALKNLYYNIDEFIDSDSSDVIVKGNIIEIEYVYIDGCSYSVLTVDVERAYKGEVQETITVYEDGGYTRLSDEKEQIEAHADLSQYTEEEMENLLINHTFMGAEHSNVGDTVILFLKTNEGSILGDSYRINCSVFGRYTLNKDSYIRPEFIVENDNPEKITTYSNMDTFEFSVSKSMLEDKLSQQ
soluble on expression in E. coli: not soluble

MKLVCISDTHSLHRRIPEIPDGDVLIHAGDSLGQGSLENIEDLNDWLGTLPHRHKIVIAGNHDWAFQEMPGEARTALSNAVYLEDSGVEIEGNRFWGSPWTPTFMDWAFMLERGEPLYQKWQLVPDNTDVLITHGPPKGIGDEANLGFKCQNVGCVDLLARIHQLSLKAHIFGHIHEGYGEYLRGKTRLINASTCTARYEPRNAPIVVDVLEHHHHHH
soluble on expression in E. coli: not soluble

MSVEFYNQNAQQFFSSTVEVDSTSLLDQFVPYLPQGGLVLDAGCGSGRDSKRFLDMGYQIDAFDASAPLAALAEELLNQSVTVTTFENFTSSKRYDGIWACASLLHVTRESLPETFAHLAKMLKCGGAFYCSFKYGQDEVERDGRRFTNCNEVLLNQLLTSSPLAIDKLWVTQDLRAGREHEQWLNAILIKRLEHHHHHH
soluble on expression in E. coli: soluble

MKGKSILSEGKQIQLATELVRLGARLQVLEASTTLSRERLVKLYKEVKGASPPKGMLPYSEDWFTGWQPNMHSSLFINIYNYITRYTKVRDIDAIIKSYQLYLEHIEANRLQRILSFTRAWTLVRFVESKVLSVTSCVKCTGNFLVHSLDIQSNHVCGLCHVPSRAGKTKRVAQEARAAQEAGAGELCVI
soluble on expression in E. coli: not soluble

MRHCGWLLGLLSLFSLATHASDWQEIKNEAKGQTVWFNAWGGDTAINRYLDWVSGEMKTHYAINLKIVRLADAADAVKRIQTEVAAGRKTGGSVDLLWVNGENFRTLKEANLLQTGWAETLPNWRYVDTQLPVREDFSVPTEGAESPWGGAQLTFIARRDVTLQPPQTPQALLEFAKANPGTVTYPRPPDFTGTAFLEQLLIMLTPDPTALKEAPDDATFARVTAPLWQYLDALHPYLWREGKDFPPSPARMDALLKANTLRLSLTFNPAHAQQKIASGDLPASSYSFGFREGMIGNVHFVTIPANANASAAAKVVANFLLSPDAQLRKADPAVWGDPSVLDPQKLPDGQRESLQSRMPQDLPPVLAEPHAGWVNALEQEWLHRYSTH
soluble on expression in E. coli: not soluble

MYQLSRTQILPVPLTVAWDFFSDPRNLAAITPPDMGFVITSPVPERTHAGMVVTYAVSPFGGLRLPWVTEITHCAEPSLFVDEQRFGPYRFWHHQHHFLEVSGGVEMRDIVHYILPFGIIGRLSAPVVAKRLKAIFDYRRDTLAVRFAALSRGALEHHHHHH
soluble on expression in E. coli: not soluble

MKFLQFALLFFIICITTTDASKKTQRVLKKVGKRFSLSEFGVVQRLDYMWRTAETVEAARNHSAELVARLLLSQSSADNLKFQESADILYSLMDNNFEGKICGGDETLNFYQMSDYWKRQRKTYRRNEKENVTWRAYPIEDNAYNKFMVRFNSKSTWGYSATMIYVVHMRLLGEKKYSNYTLTKIEEVGACTEYGGVSLENTNLYELDPERLETRDKLLKHLQELFYTEQKVSEIPFDWIYSSASEKELKIEVCHGTELKKMAKKDFIKWWEWFQMMCRPVKGENEHTLVQITGGVYDRLVFRVTMLVHVGTEDIHPTEEFSFKLQFKYDVHGDKEWLINKFEVMCPTIAVPEADLMKKHALVYREIIGSRLQLMVNNPELWYNFAEAIVALTSPTYEVENCAGKGEEMEKGTDMYQLKHTFWKLNKDTHGRMEGYTLGKKNDISETGEKMWARIRIIWTPGNDKLVYDSRWTFYLEWNSDLQAFTIYKMILQCPTVARIGEIKYYSSLNKPTTNTTSQ
soluble on expression in E. coli: not soluble

MSYKFGKLAINKSELCLANVLQAGQSFRWIWDEKLNQYSTTMKIGQQEKYSVVILRQDEENEILEFVAVGDCGNQDALKTHLMKYFRLDVSLKHLFDNVWIPSDKAFAKLSPQGIRILAQEPWETLISFICSSNNNISRITRMCNSLCSNFGNLITTIDGVAYHSFPTSEELTSRATEAKLRELGFGYRAKYIIETARKLVNDKAEANITSDTTYLQSICKDAQYEDVREHLMSYNGVGPKVADCVCLMGLHMDGIVPVDVHVSRIAKRDYQISANKNHLKELRTKYNALPISRKKINLELDHIRLMLFKKWGSYAGWAQGVLFSKEIGGTSGSTTTGTIKKRKWDMIKETEAIVTKQMKLKVELSDLHIKEAKID
soluble on expression in E. coli: soluble

MKVHNDFTLYWRVFPSGKKVVYYYAYDESGKRLMGRSTGETNLTSARVKCNKLLKEGELVPNKNHVPTFAEYAEGWWEWETCAYLKKRRKRYSLTQTYADNNKKNLKNHLLPFFGNMPMNKITKIEVEDFFDALIEKEYQNTSINGFYGTLKTMLIEAVERNIIPKDPTDKMGRLVNDRRAIKIITPEEFKKLFVGDWRRVWESDRLSYTANKLAALTGMRASEVVGLKGSFVYDEHIYLCMQYDDYGYRPTKTKDKHNIPLTSDMINELKELKRMNGDGFVFSLDGGATPICRNTVYKHFHRALRNIGITEDEISERHLHLHAWRHFFNTEMLKGGLTVTQAQAVTGHKSERMTEWYCHFDPTEFAKAKEVQEALLRPAQKKAAKEEKAGAKTSGNKDKAVKVIPFPRKENKTAGEETQASLILPLPIFKAPAGLRRELLFLPFQHFPFFFLNCRFVPFLSATGHGIFKAGMGESMEEYLTIFEVAELTKYTVGTLRKFVQKRRVAFHKWGRSLRFRRAEIELWMKMGCGKAVYLPADGDGQTKASAMEIGAES
soluble on expression in E. coli: not soluble

MSLGITRVVLADDHAVVRAGLRTALAALPDCEVVSEAATGPQLLAVLAQHHPDLLVVDVAMPDFDPIATIRQIHADYPAMKILVVSAYDDQSYVVGLLAAGVNGYHLKDQPLSDLQLAVQRIMAGGNWISSPLLSRLIQAAPQIAHSSPITLTKRQRDLLRLIAQGYDNRRMAQEMDLSIKTIENHLTALYRTIRVSSRLEAYQFALRHPELLAESGHEAALSREPSTSPAPLMVMIIDDNERYRAQLKRMIGKACAESQIYEAEDCHEATRLLRQITPDLVFVDVILQDGDGIQCLRRLKSVSPHTRVILISAYPDREFRRLGLEAGALAFLDKKDLDAATVRQVVEDTLRREGHHHHHH
soluble on expression in E. coli: soluble

MHRSFAAFSILLVAIPQASSFLFGGGCCGAPAVQSCCGSTSWAYAPPQVIGYERIPLYAKVPMPPPPTYVQPPLVGYVSPQQPVAPQGYQQQPQQQFMGQVEQGVEITPDQINSGYQPQQQMGFQSQQQQFSSIPNSGSSNYGADSSFSGSQPAGLVQSVASSAAFEAAGVAPSARRLRKFKN
soluble on expression in E. coli: not soluble

MGMLDVSLHKITQKSQSLLHRTADRHLRLAVTGLSGAGKTAFITGLVNQLLNSGAVSTVSHSRQNGLPLWQVSREQRLLGVKRAMQPDLEIASFDYQGAMLALTSNPPTWPESTRTISELRLAIKYRPEKGLLAKFADAATLYLDIVDYPGEWLLDLPMLRQSYIEWCTTQQQRIAVLKSSPLYAGFETSLNALNLAAMADESELKRLADQYQQLLHDLVHVQGYYQAQPGRMLLPGEWQGAPLLAFFPLLSVTNAQWSNLKQSDKHSAFHVLEKRYQEYVAKVVKPFYKQHFAGFDRQVVLVDCFSALNRGKSQFEDMGAALNAIMESFQYGQSSYLRRLFAPRIDRLLFAASKVDHVTRDQQSHVLSLLTDMLKHSQHFAGFEGCKVETMAISAIKATRHGMVTTQEGDVEVVQGTGLNGQALTLFPGEVPTRLPEPDFWREQGFNFIGFAPPDNTNVDPSSVHFDHIRLDHLLQYLVGDKLE
soluble on expression in E. coli: not soluble

DNKELQKLTEDISETYFKKPFRHQALFNDRLKTTGGRYLLTSHNIELNRKYLIEHGREELIGIIKHELCHYHLHLEGKGYKHRDRDFRMLLQQVNAPRFCTPLKKKAENKKTYMYICTTCGQQYIKKRAMNPDRYRCGKCRGKIKRI
soluble on expression in E. coli: not soluble

MGHHHHHHSHAAPGAQHFLYEVPPWVMCRFYKVMDALEPADWCQFAALIVRDQTELRLCERSGQRTASVLWPWINRNARVADLVHILTHLQLLRARDIITAWHPPAPLP
soluble on expression in E. coli: not soluble

MKIGIIGATGKAGSRILKEALDRGHEVTAIVRNAAKITEENVKVLEKDVFSLTSNDLQAFDVVVNAFGAPAGHDHLHVDAGNVLIEAMKGAPNTKLVVVGGAGSLFVDEEKTTRVFETPGFPEEYLATAQNQGKNLEILQQTNDITWTFISPSALFALGKRTGSYKAGKDNLLVNAKGDSYVSYEDFAVAALDEIENPKHVNERFTVVSEAELEHHHHHH
soluble on expression in E. coli: soluble
